Test results: US20240294650A1 (Alector, published 2024)

T1: Recombinant human MerTK-human Fc Chimera protein (human, UniProt Q12866 26-499, limits assumed)
T1 construct: bought construct; also called MerTK-Fc (R&D systems, Cat #391-MR-100)
T1 sequence: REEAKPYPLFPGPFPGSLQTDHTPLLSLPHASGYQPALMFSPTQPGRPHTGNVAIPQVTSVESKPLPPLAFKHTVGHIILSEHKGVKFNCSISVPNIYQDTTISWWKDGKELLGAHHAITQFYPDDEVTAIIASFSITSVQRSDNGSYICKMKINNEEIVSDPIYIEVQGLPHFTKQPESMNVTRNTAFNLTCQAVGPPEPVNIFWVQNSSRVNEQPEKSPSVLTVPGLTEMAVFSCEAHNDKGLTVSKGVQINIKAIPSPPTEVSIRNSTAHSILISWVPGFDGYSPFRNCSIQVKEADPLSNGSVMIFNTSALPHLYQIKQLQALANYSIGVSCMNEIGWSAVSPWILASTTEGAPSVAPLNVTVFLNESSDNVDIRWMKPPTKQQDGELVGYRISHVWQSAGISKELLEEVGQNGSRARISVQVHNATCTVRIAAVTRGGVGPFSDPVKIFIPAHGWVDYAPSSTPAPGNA

T2: recombinant cynomolgus MerTK extracellular domain (cynomolgus, UniProt Q12866 21-505 (human entry))
T2 construct: also called cyno MerTK ECD; not shown: polyHis or TEVS/Thrombin/murine IgG2a-Fc tag
T2 chain: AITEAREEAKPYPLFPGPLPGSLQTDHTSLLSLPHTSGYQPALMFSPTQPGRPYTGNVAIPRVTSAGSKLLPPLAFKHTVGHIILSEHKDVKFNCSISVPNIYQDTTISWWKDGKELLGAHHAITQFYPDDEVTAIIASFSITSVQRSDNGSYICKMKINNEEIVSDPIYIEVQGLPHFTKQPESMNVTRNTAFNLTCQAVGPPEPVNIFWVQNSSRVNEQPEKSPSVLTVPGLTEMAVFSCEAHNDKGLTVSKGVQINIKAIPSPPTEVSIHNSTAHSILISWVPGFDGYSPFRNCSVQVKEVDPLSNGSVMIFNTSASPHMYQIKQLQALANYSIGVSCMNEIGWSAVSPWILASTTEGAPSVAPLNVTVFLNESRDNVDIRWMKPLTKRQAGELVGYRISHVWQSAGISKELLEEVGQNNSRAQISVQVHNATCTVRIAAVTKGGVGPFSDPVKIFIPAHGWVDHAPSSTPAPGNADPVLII


Legend:
[1] = target: T1, Recombinant human MerTK-human Fc …; assay: blocking ELISA, ProS-His on MerTK-Fc, Ab 66.6 nM, isotype=100%
Description: Briefly, rabbit anti-human IgG antibody (Jackson ImmunoResearch, Cat #309-005-008) was coated at 2 μg/ml onto high-protein binding plates at 4° C. overnight. After washing with 0.05% Tween20 in PBS three times, 5% BSA in PBS was added for 1 hour. Recombinant human MerTK-human Fe Chimera protein (R&D systems, Cat #391-MR-100) was added at 2 μg/ml for 1 hour and plates were washed before the addition of 40 μl of anti-MerTK hybridoma supernatants and 40 μl of His tag-conjugated recombinant Gas6 (R&D systems, Cat #885-GSB-050) at 3 μg/ml or His tag-conjugated recombinant ProS (R&D systems, Cat #9489-PS-100) at 20 μg/ml. After a further incubation for 1 hour, plates were washed and incubated for 1 hour with HRP-conjugated anti-6×His tagged antibody (Abcam, Cambridge, MA, Cat #ab1187). Plates were then washed and an HRP substrate, TMB, was added to develop the plates. The reaction was stopped by adding 50 μl 2N H₂SO₄ and the OD was measured using a spectrophotometer (BioTek).
Anti-MerTK antibodies were titrated to a final concentration from 66.6 nM to 4 pM and tested against anti-human MerTK antibody M6 (disclosed in WO2016/106221) or isotype control antibody.

[2] = target: T2, recombinant cynomolgus MerTK …; assay: SPR Carterra LSA
Description: Binding kinetics of anti-MerTK IgG1 antibodies of the present disclosure to human, cyno, and murine MerTK were evaluated using a Carterra LSA instrument (Carterra, Salt Lake City, UT). […] A HC200M sensor chip (Carterra) was activated using the single channel flow cell with a 7-minute injection of a 1:1:1 mixture of 100 mM MES pH 5.5, 100 mM sulfo-NHS, 400 mM EDC (all reconstituted in MES pH 5.5; 100 μl of each mixed in vial immediately before running assay). After switching to the multi-channel array flow cell, the antibodies were injected over the activated chip in three 96-spot arrays for 10 minutes each. The remaining unconjugated active groups on the chip were then blocked by injecting 1M Ethanolamine pH 8.5 (Carterra) for 7 minutes using the single channel flow cell. The resulting sensor chip contained three spots for each antibody, at three different densities. Two independent experiments were performed as follows, resulting in an N of between one and six determinations for each antibody. Spots that yielded less than 25 RU of analyte binding were excluded from further analysis.
After priming with running buffer (HBS-TE, Carterra) with 0.5 mg/ml BSA (Sigma), the immobilized anti-MerTK antibodies were tested for their ability to bind to several forms of recombinant MerTK extracellular domain, including human, cynomolgus, and mouse orthologs as described above. Estimates of affinity were generated by injecting each analyte over the entire antibody array using the single channel flow cell. MerTK analytes were diluted with running buffer, in a series of six, three-fold serial dilutions starting from 1 μM for human and cynomolgus MerTK, and 600 nM for mouse MerTK. Analytes were injected for 5 minutes, and dissociation was followed for 10 minutes. After each analyte injection, antibodies were regenerated with either Protein A/G Elution Buffer (Thermo) with 1M NaCl (Teknova), or with 10 mM Glycine pH 2.5. Three buffer blanks were run between each series (one species per series). Data were processed and analyzed using NextGenKIT high-throughput kinetics analysis software (Carterra).

Binder	Percent ProS ligand binding [1]	Ratio of KD for Cynomolgus vs Human MerTK [2]
MTK-223 (antibody, human IgG1, V domains shown) VH: DVQLQESGPGLVKPSQSLSLTCSVTGYSITSGYYWNWIRQFPGNKLEWMGYISYDGTNNYNPSLKNRISITRDTSENQFFLKLNSVTTEDTATYFCVRGAGYWGQGTTLTVSS VL: not shown	37.4%	2.5 ratio
MTK-228 (antibody, human IgG1, V domains shown) VH: QDQLQQSGPELVKPGASVKISCKASGYSFTSYYIHWVKQRPGQGLEWVGWIFPGNGNTKYNERFKGKATLTADTSSSTAYMQLSSLTSEDSAVYYCARLGLIYALDYWGQGTSVTVSS VL: DAVMTQTPLSLPVSLGDQASISCRSSQSLENSNGNTYLHWYLQKPGQSPQLLIYRVSNRFSGVLDRFSGSGSGTDFTLKISRVEAEDLGVYFCLQVTHVPFTFGSGTKLEIK	216%	1.1 ratio
MTK-218 (antibody, human IgG1, V domains shown) VH: QVQLQQSGPELVKPGTSVKISCKASGYSFTSYYIHWVKQRPGQGLDWIGWIFPGNRNTQYNEKFKGKATLTADTSSSTAYMQLSSLTSEDSAVYYCARLGLIYALDYWGQGTSVTVSS VL: DAVMTQTPLSLPVSLGDQASISCRSSQSLENSNGHTYLHWYLQKPGQSPQLLIYRVSNRFSGVQDRFSGSGSGTDFTLKISRVEAEDLGVYFCLQVTHVPFTFGSGTKLEIK	179%	1.3 ratio
MTK-226 (antibody, human IgG1, V domains shown) VH: QVQLQQSGPELVKPGASVKISCKASGYSFTSYYIHWVKQRPGQGLEWIGWIFPGNGNTKYNENFRGKATLTADTSSSTAYMQLSSLTSEDSAVYYCARLGLIYALDYWGQGTSVTVSS VL: DAVMTQTPLSLPVSLGDQASISCRSSQSLESSNGNTYLHWYLQKPGQSPQLLIYRVSNRFSGVLDRFSGSGSGTDFTLQISRVEAEDLGVYFCLQVTHVPFTFGSGTKLEIK	175%	1.2 ratio
MTK-219 (antibody, human IgG1, V domains shown) VH: QVQLQQSGADLMKPGASVKLSCKATGNTFTGYWIEWVKQRPGHGLEWIGEILTGSGSTNYNERFKGKATFTADTSSNTAYMQLSSLTTEDSAIYYCAGSYFTNSWFPYWGQGSLVTVSA VL: DIVLTQSPASLAVSLGQRATISCRASESVDSYGNSFMHWYQQKPGQPPKLLIYRAYTLESGIPARFSGSGSRTDFTLTINPVEADDVATYYCQQSNEDPRTFGGGTKLEIK	100%	1.9 ratio
MTK-207 (antibody, human IgG1, V domains shown) VH: QVQLKESGPGLVAPSQSLSITCTVSGISLTSYGVSWVRQPPGKGLEWLGIIWGDGSTNYHSALISRLSISKDNSKSQVFLKLNSLQTDDTATYYCAKGRYGNYEDWYFDVWGTGTTVTVSS VL: DIQMTQSPASLSASVGETVTITCRASGNIHNYLAWYQQKQGKSPQLLVYNAKTLAAGVPSRFSGSGSGTQYSLKINSLQPEDFGSYYCQHFWSIPLTFGAGTKLELK	95.5%	
MTK-220 (antibody, V domains shown) VH: EVQLVESGGGLVKPGGSLKLSCAASGFTFSDYGMHWVRQAPEKGLEWVAFISGGSGTIYYEDTVKGRFTISRDNAKNTLFLQMTSLRSEDTAMYYCTRGGNYFDYWGQGTTLTVSS VL: NIMLTQSPSSLAVSAGEKVTMTCKSSQSVLYSSNQKNYLAWYQQKPGQSPKLLIYWASTRESGVPDRFTGSGSGTDFTLTISNVQAEDLAVYYCHQYFSSWTFGGGTKLEIK	63.4%	2.7 ratio
MTK-216 (antibody, human IgG1, V domains shown) VH: EVQLVESGGGLVKPGGSLKLSCAASGFTFSDYGMHWVRQAPEKGLEWVAFISSGSTTIYYADTVKGRFTISRDNAKNTLILQMTSLRSEDTAIYYCTRGGFHLDYWGQGTTLTVSS VL: SIMMTQSPSSLAVSAGEKVTMGCKSSQSVLYSANQQNYLAWYQQKPGQSLKLLIYWASTRESGVPDRFTGSGSGTDFTLTISSVQAEDLAVYYCHQYFSSWTFGGGTKLEIK	72.8%	
MTK-227 (antibody, human IgG1, V domains shown) VH: EVKLVESGGGLVQPGGSLSLSCAASGFTFTDNYMTWVRQPPGKALEWLGFSRNKANGYTTEYSASVKGRFTISRDSSQSILYLQMNALRAEDSGTYYCARFPPHYYAGGYFDVWGTGTTVTVSS VL: DIQMTQSPASLSASVGETVTITCRASENIYSYLAWYQQKQGKSPQLLVYNAKTLAEGVPSRFSGSGSGTQFSLKINSLQPADFGSYYCQHYYRTPPTFGGGTKLEIK	84.5%	0.8 ratio
MTK-211 (antibody, human IgG1, V domains shown) VH: QVQLQQSGAELMKPGASVKLSCKATGYTFTGYWIEWVKQRPGHGLEWIGEILPGSGGSNYNEKFKGKATFTADTSSNTAYIQLSSLTTEDSAIYCCARGEPSYFSDAGFAYWGQGTLVTVSA VL: QIVLTQSPAVMSASPGEKVTMTCSASSSITYMHWYQQKPGTSPKRWIYDTSKLASGVPARFSGSGSGTSYFLTISSMEAEDVATYYCHQRSTYPYTFGGGTKLEIM	106%	1.1 ratio
MTK-213 (antibody, human IgG1, V domains shown) VH: QVQLQQPGAELVKPGASVKMSCKASGYTFTSYWITWVKQRPGQGHEWIGEIYPGIGSTNYNEKFKSKATLTVDTSSRTAYMQLSSLTSEDSAVYFCARGAYTKYYFDYWGQGTTLTVSS VL: DIVMTQSHKFMSTSVGDRVSITCKASQDVGDAVAWYQQKPGQTPKLLIYWASTRHTGVPDRFTGSGSGTDFTLTISNVQSEDLADYFCQQYSSYLMYTFGGGTKLEIK	43.2%	0.9 ratio
MTK-229 (antibody, human IgG1, V domains shown) VH: QVQLQQSGPELVKPGASVKISCKASGYEFSRSWMNWVKQRPGKGLEWIGRIYPGDGDTNYKGKLKGQATLTADKSSSTAYMQLSSLTFEDSAVYFCARGGGYYYDSRYEGFVYWGQGTVVTVSA VL: QIVLTQSPAIMSASPGEEVTMTCSASSSVSYMHWYQQKSGTSPKRWIYDTSKLASGVSGRFSGSGSGTSYSLTISSMEAEDAATYYCQQWSSNPPITFGAGTKLELK	117%	2.9 ratio
MTK-201 (antibody, human IgG1, V domains shown) VH: QVQLRQSGPGLVQPSQSLSITCTVSGFSLSNYGLHWVRQSPGKGLEWLGVIWSGGITDYNAAFISRLSIIKDNSRSQVFFKMNSLQADDTAIYYCARKGHDPYAMDFWGQGTSVTVSS VL: QIVLTQSPPIMSAFLGERVTMTCTASSSVSSSYLHWYRQMPGSSPKLWIYDTSNLASGVPARFSGSGSGTSYSLTISSMEAEDAATYYCHQYHHSPYTFGGGTKLEIK	94.3%	
